The values below come from PMC11065875.

For this data set, the system named is H-24 (His-ELP) (synthetic; E. coli BL21 expressed). In words: coacervate partitioning, fluorimetry. Conditions: EMSA in 2.5% agarose, 30 min incubation, 0.5 uM ssDNA1, fusions in 1x PBS (or 50% artificial fluids) at RT, His-ELPs at RT in 37 mM citric acid/126 mM Na2HPO4 …; for binding signal (% in coacervate): 60 C (LLPS 1).

Regarding “GGGTTCCTTGCTAGCCAGAGAGCTCCCGGGCTCGACCTGGTCTAACAAGAGAGACC [ATTO488-ssDNA1]”, the binding signal (% in coacervate) reads like this: (pH 6.5, artificial nasal swab fluid) 80; (pH 6.5, artificial saliva) 70; (pH 6.5, buffer) 60. The binding signal (% in protein-poor supernatant) (pH 8, 300 mM NaCl, 30 C (LLPS 2)) is more than 90.
